# Measurements as given in the supplement of paper PMC10899765.
# Key:
# Details in all cases: 20 nM; 72 h
# MCF10A [1] = test: percent viability (nuclei count relative to siNT); higher = more viable cells
# Experimental: (§1)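 After 72 h, cells were fixed and stained with Hoechst and anti-fibrillarin, and nucleoli per nucleus were counted with CellProfiler. Values are plate-adjusted percent effect for the one-nucleolus and 5+ nucleoli phenotypes, normalised to siNT (0%) and to the positive controls siNOL11 or siKIF11 (100%), as the mean of biological triplicates. Percent viability is the nuclei count relative to siNT.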
# MCF10A [2] = test: 5+ nucleoli phenotype percent effect (relative to siNT 0% and siKIF11 100%); higher = more cells with five or more nucleoli
# Experimental: as §1
# MCF10A [3] = test: one-nucleolus phenotype percent effect (relative to siNT 0% and siNOL11 100%); higher = more cells with one nucleolus (ribosome biogenesis inhibition)
# Experimental: as §1
Sequence,percent viability (MCF10A [1]),5+ nucleoli phenotype percent effect (MCF10A [2]),one-nucleolus phenotype percent effect (MCF10A [3])
GUGUCUGCUUCCUGUGGGA [hsa-miR-632],37%,-24.2%,31.3%
GUGUCUGGGCGGACAGCUGC [hsa-miR-1231],39.3%,-15.6%,62.4%
GUGUCUUUUGCUCUGCAGUCA [hsa-miR-511],55.3%,-3.71%,-6.61%
GUGUGACCACCGUUCCUGCAG [hsa-miR-6808-3p],27.3%,-25.4%,28.3%
GUGUGCGGAAAUGCUUCUGCUA [hsa-miR-147b],70.3%,33.7%,-12.4%
GUGUGGAAGAUGGGAGGAGAAA [hsa-miR-6833-5p],49.8%,4.29%,-3.83%
GUGUGGCCGGCAGGCGGGUGG [hsa-miR-7108-5p],55.9%,6.78%,-12.6%
GUGUUAAUUAAACCUCUAUUUAC [hsa-miR-2053],91.5%,3.14%,-1.87%
GUGUUCUCUGAUGGACAG [hsa-miR-4273],49.3%,10.3%,-6.59%
GUGUUGAAACAAUCUCUACUG [hsa-miR-653],169%,38.1%,-22.2%
GUUAGGGCCAACAUCUCUUGG [hsa-miR-2909],48.3%,5.52%,-6.14%
GUUCAAAUCCAGAUCUAUAAC [hsa-miR-607],111%,34.2%,-23.2%
GUUCCACACUGACACUGCAGAAGU [hsa-miR-3692-3p],49.6%,6.05%,-3.86%
GUUCCUGCUGAACUGAGCCAG [hsa-miR-3074-5p],42.2%,-17.7%,-7.07%
GUUCUGUUAACCCAUCCCCUCA [hsa-miR-4652-3p],28.2%,-42.7%,16%
GUUGGGACAAGAGGACGGUCUU [hsa-miR-3122],87.3%,22.1%,-20.5%
GUUGGGGUGCAGGGGUCUGCU [hsa-miR-5572],19.7%,-19.8%,43.3%
GUUGUGUCAGUUUAUCAAAC [hsa-miR-599],84.3%,29.3%,-13.5%
GUUUAACCUUUUGCCUGUUGG [hsa-miR-552-5p],98.1%,32%,-29.8%
GUUUCACCAUGUUGGUCAGGC [hsa-miR-5096],49%,-17.6%,21.9%
GUUUGCACGGGUGGGCCUUGUCU [hsa-miR-557],47.7%,-30.1%,34.6%
GUUUGGACAUAGUGUGGCUGG [hsa-miR-7850-5p],115%,49.1%,-32.7%
GUUUUACCACCUCCAGGAGACU [hsa-miR-2681-5p],36%,3.14%,-33.4%
UAAAAACUGCAAUUACUUUUA [hsa-miR-548aj-3p],115%,35.3%,-18.5%
UAAAACCCACAAUUAUGUUUGU [hsa-miR-548as-3p],149%,-6.8%,25.3%
UAAAACUGCAGUUAUUUUUGC [hsa-miR-548ar-3p],122%,38.3%,-24.2%
UAAAACUUUAAGUGUGCCUAGG [hsa-miR-5582-3p],72.9%,7.07%,-11.3%
UAAAAUUUGCAUCCAGGA [hsa-miR-4282],66%,22.1%,-28.5%
UAAAGAACUCUUAAAACCCAAU [hsa-miR-3133],51.5%,48.7%,-22.2%
UAAAGACUGUAGAGGCAACUGGU [hsa-miR-7161-5p],79.8%,33.8%,-23.4%
